From publication doi:10.1101/2023.07.17.549240

B1: PCS2 W-box1 cold competitor (dsDNA)
DNA 1: ATTGTCAGAGTTTGACTATGGAGCAAAC
DNA 2: GTTTGCTCCATAGTCAAACTCTGACAAT
B2: PCS2 W-box1 (W1) probe (dsDNA)
DNA 1: ATTGTCAGAGTTTGACTATGGAGCAAAC
DNA 2: GTTTGCTCCATAGTCAAACTCTGACAAT
B3: PCS1 W-box probe (dsDNA)
DNA 1: TACAATCCAAATTGACTGTAATTTGTTA
DNA 2: TAACAAATTACAGTCAATTTGGATTGTA
B4: PCS2 mW-box1 probe (dsDNA)
DNA 1: ATTGTCAGAGTCGCGGAATGGAGCAAAC
DNA 2: GTTTGCTCCATTCCGCGACTCTGACAAT

Key:
[1] = target: T1, WRKY45 (Arabidopsis thaliana, UniProt Q9S763 1-147); assay: competition
T1 sequence (Q9S763 whole entry): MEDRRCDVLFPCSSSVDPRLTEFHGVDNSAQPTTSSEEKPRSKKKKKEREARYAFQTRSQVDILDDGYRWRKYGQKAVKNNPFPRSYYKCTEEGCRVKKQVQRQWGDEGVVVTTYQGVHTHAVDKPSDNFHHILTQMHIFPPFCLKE

[2] = target: T1, WRKY45; assay: EMSA

Row | Binder | binding result [1] | binding result [2]
1 | B1 | binds | 
2 | B2 |  | binds
3 | B3 |  | no binding
4 | B4 |  | no binding
